{
  "source": "patent US20170320921A1",
  "about": "(Scripps Research, published 2017)",
  "binders": {"B1": {"name": "Mpn400 (residues 41 to 582), His-tagged recombinant, lacking the membrane domain (other)", "chain": "HHHHHHSSGLVPRGSHMNEVLRLQSGETLIASGRSGNLSFQLYSKVNQNAKSKLNSISLTDGGYRSEIDLGDGSNFREDFRNFANNLSEAITDAPKDLLRPVPKVEVSGLIKTSSTFITPNFKAGYYDQVAADGKTLKYYQSTEYFNNRVVMPILQTTNGTLTANNRAYDDIFVDQGVPKFPGWFHDVDKAYYAGSNGQSEYLFKEWNYYVANGSPLYNVYPNHHFKQIKTIAFDAPRIKQGNTDGINLNLKQRNPDYVIINGLTGDGSTLKDLELPESVKKVSIYGDYHSINVAKQIFKNVLELEFYSTNQDNNFGFNPLVLGDHTNIIYDLFASKPFNYIDLTSLELKDNQDNIDASKLKRAVSDIYIRRRFERQMQGYWAGGYIDRYLVKNTNEKNVNKDNDTVYAALKDINLHLEETYTHGGNTMYRVNENYYPGASAYEAERATRDSEFQKEIVQRAELIGVVFEYGVKNLRPGLKYTVKFESPQEQVALKSTDKFQPVIGSVTDMSKSVTDLIGVLRDNAEILNITNVSKDETVVAELKEKLDRENVFQEIRT"}},
  "key": {"[1]": {"target": "T1, PGT135 Fab (against HIV-1 gp120, κ light chain)", "T1 construct": "also called Fab PGT135", "test": "Biolayer Interferometry (Octet Red)"}, "[2]": {"target": "T2, Fab CR9114 (against influenza hemagglutinin, λ light chain)", "T2 construct": "also called CR9114 Fab", "test": "Biolayer Interferometry (Octet Red)"}, "[3]": {"target": "T3, 4PL IgG, human multiple myeloma antibody (Mayo Clinic)", "test": "Biolayer Interferometry; antibody on protein G sensors, Mpn400 in solution"}, "[4]": {"target": "T4, Human IgG4κ (Sigma Aldrich catalog no. 14639), myeloma antibody", "test": "Biolayer Interferometry; antibody on protein G sensors, Mpn400 in solution"}, "[5]": {"target": "T5, Human IgG1κ (Sigma Aldrich catalog no. 15154), myeloma antibody", "T5 construct": "also called IgG1k", "test": "Biolayer Interferometry; antibody on protein G sensors, Mpn400 in solution"}, "[6]": {"target": "T6, Human IgG2κ (Sigma Aldrich catalog no. 15404), myeloma antibody", "T6 construct": "also called IgG2k", "test": "Biolayer Interferometry; antibody on protein G sensors, Mpn400 in solution"}, "[7]": {"target": "T7, Human IgG3κ (Sigma Aldrich catalog no. 15654), myeloma antibody", "T7 construct": "also called IgG3k", "test": "Biolayer Interferometry; antibody on protein G sensors, Mpn400 in solution"}, "[8]": {"target": "T8, Human IgG2λ (Sigma Aldrich catalog no. 15279), myeloma antibody", "T8 construct": "also called IgG21", "test": "Biolayer Interferometry; antibody on protein G sensors, Mpn400 in solution"}, "[9]": {"target": "T4, Human IgG4κ (Sigma Aldrich catalog no. …)", "test": "Biolayer Interferometry; antibody (printed IgG4λ) on protein G sensors, PM2 in solution"}, "[10]": {"target": "T3, 4PL IgG, human multiple myeloma …", "test": "Biolayer Interferometry; antibody on protein G sensors, PM2 in solution"}, "[11]": {"target": "T6, Human IgG2κ (Sigma Aldrich catalog no. …)", "test": "Biolayer Interferometry; antibody on protein G sensors, PM2 in solution"}, "[12]": {"target": "T8, Human IgG2λ (Sigma Aldrich catalog no. …)", "test": "Biolayer Interferometry; antibody on protein G sensors, PM2 in solution"}, "[13]": {"target": "T7, Human IgG3κ (Sigma Aldrich catalog no. …)", "test": "Biolayer Interferometry; antibody (printed IgG3λ) on protein G sensors, PM2 in solution"}, "[14]": {"target": "B1", "test": "Biolayer Interferometry; antibody on protein G sensors, Mpn400 in solution"}},
  "data": [
    {"binder": "recombinant Protein M TD (His-tagged MG281 residues 74 to 468) (other) HHHHHHSSGLVPRGSHMSLSLNDGSYQSEIDLSGGANFREKFRNFANELSEAITNSPKGLDRPVPKTEISGLIKTGDNFITPSFKAGYYDHVASDGSLLSYYQSTEYFNNRVLMPILQTTNGTLMANNRGYDDVFRQVPSFSGWSNTKATTVSTSNNLTYDKWTYFAAKGSPLYDSYPNHFFEDVKTLAIDAKDISALKTTIDSEKPTYLIIRGLSGNGSQLNELQLPESVKKVSLYGDYTGVNVAKQIFANVVELEFYSTSKANSFGFNPLVLGSKTNVIYDLFASKPFTHIDLTQVTLQNSDNSAIDANKLKQAVGDIYNYRRFERQFQGYFAGGYIDKYLVKNVNTNKDSDDDLVYRSLKELNLHLEEAYREGDNTYYRVNENYYPGASIYENERASRDSEFQNEILKR", "values": [
      {"measurement": "Kd", "setting": "[1]", "value": 3.7, "unit": "nM"},
      {"measurement": "Kd", "setting": "[2]", "value": 1.9, "unit": "nM"}
    ]},
    {"binder": "B1", "values": [
      {"measurement": "Kd", "setting": "[3]", "value": 0.6, "unit": "nM"},
      {"measurement": "Kd", "setting": "[4]", "value": 0.43, "unit": "nM"},
      {"measurement": "Kd", "setting": "[5]", "value": 0.48, "unit": "nM"},
      {"measurement": "Kd", "setting": "[6]", "value": 6.23, "unit": "nM"},
      {"measurement": "Kd", "setting": "[7]", "value": 0.93, "unit": "nM"},
      {"measurement": "Kd", "setting": "[8]", "value": 13, "unit": "nM"}
    ]},
    {"binder": "PM2 (Protein M TD residues 74 to 482, Tyr158 to phenylalanine) (other) HHHHHHSSGLVPRGSHMSLSLNDGSYQSEIDLSGGANFREKFRNFANELSEAITNSPKGLDRPVPKTEISGLIKTGDNFITPSFKAGYYDHVASDGSLLSYFQSTEYFNNRVLMPILQTTNGTLMANNRGYDDVFRQVPSFSGWSNTKATTVSTSNNLTYDKWTYFAAKGSPLYDSYPNHFFEDVKTLAIDAKDISALKTTIDSEKPTYLIIRGLSGNGSQLNELQLPESVKKVSLYGDYTGVNVAKQIFANVVELEFYSTSKANSFGFNPLVLGSKTNVIYDLFASKPFTHIDLTQVTLQNSDNSAIDANKLKQAVGDIYNYRRFERQFQGYFAGGYIDKYLVKNVNTNKDSDDDLVYRSLKELNLHLEEAYREGDNTYYRVNENYYPGASIYENERASRDSEFQNEILKRAEQNGVTFDENIKR", "values": [
      {"measurement": "Kd", "setting": "[9]", "value": 1.84, "unit": "nM"},
      {"measurement": "Kd", "setting": "[10]", "value": 0.6, "unit": "nM"},
      {"measurement": "Kd", "setting": "[11]", "value": 9.56, "unit": "nM"},
      {"measurement": "Kd", "setting": "[12]", "value": 8.9, "unit": "nM"},
      {"measurement": "Kd", "setting": "[13]", "value": 6.6, "unit": "nM"}
    ]},
    {"binder": "13PL IgG, monoclonal immunoglobulin from multiple myeloma patient 13PL (human IgG1κ) (antibody, V domains shown, also called multiple myeloma antibody 13PL; Multiple Myeloma antibody (13PL)) VH: AVSLVESGGGTVEPGSTLRLSCAASGFTFGSYAFHWVRQAPGDGLEWVAFISYNGSSKYYANFVKGRFTISRDNSSNTLSLQMNSLKASDTAVYYCARAPDCAQADCHKGAFGYWGQGTLVTVSS VL: DIEMTQSPSSLSASTGDKVTITCQASQDIAQFLDWYQQRPGDTPKLLIYDASNLAIGVPSRFTGSGSGTDFTFTISSLQPEDIAVYYCQHYDDFPISFGPGTKLETKR", "values": [
      {"measurement": "Kd", "setting": "[14]", "value": 0.5, "unit": "nM"}
    ]}
  ]
}
